The source of these data is patent US20230129651A1, “HAIRPIN STRUCTURE NUCLEIC ACID MOLECULES CAPABLE OF MODULATING TARGET GENE EXPRESSION AND USES THEREOF” (KOREA ADVANCED INSTITUTE OF SCIENCE AND TECHNOLOGY, priority 2021, published 2023).

For one data set, the system named is miR-155. The experiment in a line: miR-155 expression in FLT3-ITD mutated AML cell line after treatment with AML therapeutic agents. The data set is classed as cell-based. The conditions noted are these: NOLM-14; IC50 dose, 37° C., 72 hours. How it is done: The FLT3-ITD mutated AML cell line (NOLM-14) was treated with an IC50 dose of cytarabine, azacitidine, decitabine, venetoclax, or gilteritinib, which is used as standard therapeutic agents for AML, at 37° C. for 72 hours, followed by measuring expression levels of miR-155.

A further data set concerns cleaved PARP. The experiment in a line: Western blotting of apoptotic marker in HL-60 after siRNA knockdown. It is filed as cell-based. The settings on record: HL-60 cells. As to the method:
miRNA triggers were transfected into cells in the same manner as in Reference Example 4. After 72 hours, the cells were collected using a cell scraper and lysed with a RIPA buffer (NaCl 150 mM, EDTA 5 mM, Tris 50 mM, NP-40 1.0%, sodium deoxycholate 0.5%, SDS 0.1%). The cell lysate was sonicated 15 times, each for 20 sec, with a halt for 30 sec every sonication. Following centrifugation at 5,000 g for 5 min, the supernatant was taken and used to extract proteins therefrom. A total of 30-40 μg of protein sample was separated in 10-15% SDS-PAGE gel and transferred onto a PVDF membrane through a semi-dry blotting system. The membrane was blocked for 1 hour in 5% skimmed milk and incubated for 2 hours with a 1,000-fold dilution of a primary antibody in, 1% skimmed milk. […] The membrane incubated with the secondary antibody was washed three times with 1×PBST for 10 min each wash, and then reacted with Clarity Western ECL Substrate (#1705061, Bio-Rad), after which images were obtained and analyzed using ChemiDoc (Bio-rad, Hercules, USA). […]
For orientation: A western blot detects proteins with antibodies after separation by electrophoresis.

Data set [1] concerns FLT3 mutated AML cell line MV4-11. Nature of the data set: Cell viability of MV4-11 after transfection. It is filed as cell-based. How it is done:
The miRNA triggers were assayed for cytotoxicity and apoptosis induction, using the CCK-8 (Cell Counting Kit-8) (Dojindo, Kumamoto, Japan) according to the manufacturer's instruction. Cells were incubated in 96-well plates (5×10^3 cells/well) at 37° C. for 24 hours under a 5% CO2 atmosphere, followed by transfection. Three days after transfection, the medium was removed. A 10-fold dilution of CCK-8 solution in DMEM was added to the cells which were then incubated at 37° C. for 2 hours. After incubation, absorbance was read at 450 nm on Tecan Infinite M200 pro microplate reader (Mnnedorf, Switzerland).
A linear miRNA trigger (Mcl-1_155_155 or Bcl-2_155_155) which could bind to miR-155 and target mcl-1 or bcl-2 gene was prepared and transfected into the FLT3 mutated AML cell line MV4-11 which was then measured for cell viability. The results are depicted in FIGS. 31a and 31b. Sequences are listed in Tables 19 and 21 for the linear miRNA triggers prepared above, and in Tables 18 and 19 for the controls Luc-Luc-Luc and luc-155-155, respectively. Every nucleotide of the triggers and the controls were chemically modified with 2′-OMe.

Data set [2] concerns MOLM-14, MV4-11 and Hela cells. Nature of the data set: Fluorescence detection after transfection of Cy5.5-labeled miRNA trigger into cells (IVIS 100). It is filed as cell-based. The conditions noted are these: Lipofectamine. How it is done: With the aid of Lipofectamine, the linear miRNA trigger (5′-Cy5.5-miR-155-miR-155-PKR-3′) was transfected into the FLT3-ITD mutant AML cell lines MOLM-14 and MV4-11 and the solid cancer cell line Hela. […] Subsequent animal tests were performed with the trigger.

Data set [3] in a line: In vivo imaging after tail vein injection of Cy5.5-labeled miRNA trigger. Also noted: species or system C57BL/6 (B6) mice.
Procedure: As a negative control, PBS was injected at a dose of 200 μl into mice.
Days 1, 2, and 4 after miRNA trigger injection, in vivo imaging was performed using IVIS 100 (PerkinElmer).
Data set [4] can be described thus: FACS detection of Cy5.5 in hematopoietic origin cells of injected mice. The data set is classed as in vivo, C57BL/6 (B6) mice. The text has this:
Day 4 after miRNA trigger injection in Example 6-2, mice in the miRNA trigger-administered test group (N=4) and the PBS-administered control (N=4) were sacrificed and specimens (blood cells) were taken from peripheral blood vessels, the spleen, and the bone marrow (femur blood cells). Erythrocytes were removed using an RBC lysis buffer.
The cells in peripheral blood sample were gated through three steps (step 1: debris removal, step 2: selection of single blood cell population, step 3: Cy5.5 detection) to select single blood cells of quality. Through FACS, blood cells retaining Cy5.5 were identified. The results are depicted in FIGS. 20a to 20c.
Spleen-derived hematopoietic cells and bone marrow hematopoietic cells of mice were gated in the foregoing manner and Cy5.5 was detected. The results are depicted in FIGS. 21 and 22. As shown in FIGS. 21a to 21c, 8.7-13.7% of total spleen-derived hematopoietic cells expressed Cy5.5. As in peripheral blood cells, Cy5.5 was detected mainly in lymphocytes and monocytes of the spleen-derived hematopoietic cells.

{Cy5.5} = Cy5.5 fluorophore label

Take `Nc1ccn([C@@H]2O[C@H](CO)[C@@H](O)[C@@H]2O)c(=O)n1` [cytarabine]: in the data set with miR-155, the miR-155 expression result was “did not repress miR-155 express”.

Consider “siBcl-2: siRNA targeting bcl-2; SEQ ID NO 62 (AUCAAUCUUCAGCACUCUC; listed as RNA, chemistry not given here)”, for which, in the data set with cleaved PARP, the “expression of apoptotic marker cleaved PARP” value is on record as “upregulated”.

Take “Mcl-1_155_155: linear miRNA trigger binding miR-155 and targeting mcl-1; SEQ ID NO 105 (UUAUGUUUCAGGUUCAGGGGGAUUAUGUUUCAGGUUCAGGGGGACCGAACUACGUAGC; all 2'-O-methyl, backbone not given here)”: the “apoptosis (cell viability)” value in data set [1] is given as “induce MV4-11 to undergo apoptosis”.

B1: Cy5.5_PKR-155_155: linear miRNA trigger binding miR-155 and targeting PKR, labeled with Cy5.5 fluorophore; SEQ ID NO 69 (nucleic acid)
chain: UUAUGUUUCAGGUUCAGGGGGAUUAUGUUUCCAGGUUCAGGGGGAUAUGUGAGGCAGAGAACGA
modifications: all 2'-O-methyl, 5' {Cy5.5}, backbone not given here
Take B1: the “fluorescence in transfected cells” value in data set [2] is recorded as “Fluorescence was detected”. For the same molecule, in data set [3], the “time Cy5.5 fluorescence detected in the mouse body” value was at least 4 days and the “toxicity over the period of in vivo imaging” value is on record as “particular toxicity was detected from none of the mice”. Besides, the “organs in which Cy5.5 was detected” value in data set [3] (Invivofectamine, 120 nM, days 1, 2 and 4) was “detected in main organs including the liver, the spleen, the bone marrow, and the heart, and the hematopoietic organ”. For the same molecule, the “rate of bone marrow cells expressing Cy5.5” value in data set [4] (bone marrow, day 4) is given as 1.0-2.0%. In data set [4] (bone marrow, lymphocytes gated through 4 steps, day 4), the “Cy5.5 detected in gated lymphocytes” value was 5.4-9.6%. For the same molecule, in data set [4] (day 4 after injection), the “Cy5.5 detection in blood cells (FACS profile)” value was “detected in blood cells, especially lymphocytes and monocytes”. In data set [4] (peripheral blood, day 4), the “rate of Cy5.5 detection based on total number of single blood cells” value is 6.2-15.9%. Further, in data set [4] (spleen, day 4), the “spleen-derived hematopoietic cells expressing Cy5.5” value is 8.7-13.7%.
